Laboratory results taken from patent US20220251214A1 (JN BIOSCIENCES, published 2022).

Columns and labels:
[1] = target: T1, human PD-L1 (human, UniProt Q9NZQ7 19-238, limits assumed); assay: ELISA
T1 construct: also called B7H1; CD274

[2] = target: T2, human GITR (human, UniProt Q9Y5U5 26-161, limits assumed); assay: ELISA
T2 construct: also called TNFRSF18; CD357
T2 sequence: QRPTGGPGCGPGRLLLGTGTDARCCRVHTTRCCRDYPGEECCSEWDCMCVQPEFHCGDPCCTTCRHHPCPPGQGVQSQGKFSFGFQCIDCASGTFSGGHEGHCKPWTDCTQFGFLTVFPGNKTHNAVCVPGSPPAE

[3] = target: human PD-L1 on PD-L1-expressing cells of human PBMC cultures (human, UniProt Q9NZQ7 19-290); assay: cell-based or functional assay
Sequence of human PD-L1 on PD-L1-expressing cells of human PBMC cultures (Q9NZQ7 19-290 limits assumed): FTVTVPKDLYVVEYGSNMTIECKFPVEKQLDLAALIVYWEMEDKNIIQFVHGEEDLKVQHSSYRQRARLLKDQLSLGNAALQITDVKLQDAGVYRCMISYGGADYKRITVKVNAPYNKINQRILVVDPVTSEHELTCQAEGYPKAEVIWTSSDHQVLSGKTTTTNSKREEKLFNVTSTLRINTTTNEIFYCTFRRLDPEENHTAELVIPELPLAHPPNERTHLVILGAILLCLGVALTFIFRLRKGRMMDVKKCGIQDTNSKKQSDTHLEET

[4] = target: T3, human OX40 on the cell surface (JD/OX40 cells; OX40-expressing T cells) (human, UniProt P43489 29-277); assay: cell-based or functional assay
T3 sequence: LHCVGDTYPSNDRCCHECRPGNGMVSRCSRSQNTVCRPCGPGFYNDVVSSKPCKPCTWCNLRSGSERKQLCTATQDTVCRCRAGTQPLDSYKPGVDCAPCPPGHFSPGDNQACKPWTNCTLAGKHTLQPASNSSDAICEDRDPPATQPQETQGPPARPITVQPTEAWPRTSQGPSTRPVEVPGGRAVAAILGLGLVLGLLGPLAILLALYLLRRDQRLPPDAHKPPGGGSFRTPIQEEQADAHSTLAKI

[5] = target: T4, recombinant human PD-L1 on the surface of NS0/PD-L1 cells (PD-L1-FLAG-GPI) (human, UniProt Q9NZQ7 19-238); assay: cell-based or functional assay
T4 sequence (Q9NZQ7 other isoform, or with tags, fused parts or gaps limits assumed): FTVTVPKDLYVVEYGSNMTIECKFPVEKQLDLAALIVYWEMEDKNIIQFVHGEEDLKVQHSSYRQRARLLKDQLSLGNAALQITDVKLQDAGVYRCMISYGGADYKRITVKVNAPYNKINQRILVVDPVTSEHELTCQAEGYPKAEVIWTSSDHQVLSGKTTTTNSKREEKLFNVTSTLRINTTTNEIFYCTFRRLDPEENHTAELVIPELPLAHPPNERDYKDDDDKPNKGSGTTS

[6] = target: T5, human GITR on the cell surface (JD/GITR cells; GITR-expressing T cells) (human, UniProt Q9Y5U5 26-241); assay: cell-based or functional assay
T5 sequence: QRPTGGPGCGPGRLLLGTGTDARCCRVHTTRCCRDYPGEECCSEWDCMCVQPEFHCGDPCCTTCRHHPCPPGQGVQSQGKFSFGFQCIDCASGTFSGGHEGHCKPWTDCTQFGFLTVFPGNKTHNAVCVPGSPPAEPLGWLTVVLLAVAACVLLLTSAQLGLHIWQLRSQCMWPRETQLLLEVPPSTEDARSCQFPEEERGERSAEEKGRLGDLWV

[7] = target: T4, recombinant human PD-L1 on the surface …; assay: flow cytometry; blocking of the binding of FITC-labeled hPD-1-Fc to NS0/PD-L1 cells
Source text: After washing with and suspending in FACS Buffer, cells were subjected to flow cytometry analysis.

[8] = target: T3, human OX40 on the cell surface (JD/OX40 …); assay: flow cytometry on JD/OX40 cells
[9] = target: CD40 on the surface of Ramos cells (human, UniProt P25942 21-277); assay: cell-based or functional assay
Sequence of CD40 on the surface of Ramos cells (P25942 21-277 limits assumed): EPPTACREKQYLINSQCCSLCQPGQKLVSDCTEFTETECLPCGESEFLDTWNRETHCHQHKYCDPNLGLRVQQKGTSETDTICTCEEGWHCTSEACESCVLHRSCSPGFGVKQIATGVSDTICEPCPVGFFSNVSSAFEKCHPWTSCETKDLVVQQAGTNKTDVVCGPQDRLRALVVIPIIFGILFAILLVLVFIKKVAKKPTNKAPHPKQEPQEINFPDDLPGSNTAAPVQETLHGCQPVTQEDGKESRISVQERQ

[10] = target: CD33 on the surface of HL-60 cells (human, UniProt P20138 18-364); assay: cell-based or functional assay
Sequence of CD33 on the surface of HL-60 cells (P20138 18-364 limits assumed): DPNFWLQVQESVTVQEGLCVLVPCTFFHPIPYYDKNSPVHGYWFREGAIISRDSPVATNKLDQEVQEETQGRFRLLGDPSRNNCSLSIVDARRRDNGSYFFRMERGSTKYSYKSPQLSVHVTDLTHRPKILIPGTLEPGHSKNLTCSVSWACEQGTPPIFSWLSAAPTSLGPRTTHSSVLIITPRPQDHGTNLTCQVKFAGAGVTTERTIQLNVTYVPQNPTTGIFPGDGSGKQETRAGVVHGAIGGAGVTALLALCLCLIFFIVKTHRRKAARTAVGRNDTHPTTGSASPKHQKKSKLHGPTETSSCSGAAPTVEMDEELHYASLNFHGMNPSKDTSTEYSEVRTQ

[11] = target: recombinant human CD33 on the surface of NS0/CD33 cells (CD33-FLAG-GPI) (human); assay: cell-based or functional assay
Sequence of recombinant human CD33 on the surface of NS0/CD33 cells (CD33-FLAG-GPI) (human) (chain, as listed by the source limits assumed): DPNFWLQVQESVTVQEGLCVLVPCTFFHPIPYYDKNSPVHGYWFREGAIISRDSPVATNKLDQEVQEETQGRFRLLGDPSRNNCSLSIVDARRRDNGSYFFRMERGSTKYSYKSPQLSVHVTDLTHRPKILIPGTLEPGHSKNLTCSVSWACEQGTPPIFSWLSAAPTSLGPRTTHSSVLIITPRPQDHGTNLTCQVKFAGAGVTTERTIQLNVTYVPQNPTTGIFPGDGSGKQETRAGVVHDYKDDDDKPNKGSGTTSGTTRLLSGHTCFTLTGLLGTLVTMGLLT

T1 sequence (Q9NZQ7 19-238 limits assumed): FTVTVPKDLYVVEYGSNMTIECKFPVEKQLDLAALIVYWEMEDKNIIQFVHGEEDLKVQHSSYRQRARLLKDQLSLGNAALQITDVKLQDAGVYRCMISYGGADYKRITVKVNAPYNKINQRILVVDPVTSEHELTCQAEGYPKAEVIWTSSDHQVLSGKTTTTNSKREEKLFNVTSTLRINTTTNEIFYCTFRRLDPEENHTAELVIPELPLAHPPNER

B1: BS853 (bispecific antibody, human IgG1, kappa, L234A L235A)
heavy: not shown
light: EIVLTQSPATLSLSPGERATLSCSASSSVSYMHWYQQKPGQAPRPWIYDTSNLASGFPARFSGSGSGTDFTLTISSLEPEDFAVYYCHQRSSYPWTFGGGTKVEIKRTVAAPSVFIFPPSDEQLKSGTASVVCLLNNFYPREAKVQWKVDNALQSGNSQESVTEQDSKDSTYSLSSTLTLSKADYEKHKVYACEVTHQGLSSPVTKSFNRGEC
notes: Transiently expressed in HEK293 cells; Cysteines at position 44 of VH and 100 of VL of the anti-GITR scFv; also called modified bispecific antibody encoded in pBS853; BS809 with disulfide-linked anti-GITR scFv
**Q.** Does B1 bind [1]?
**A.** binds

**Q.** Does B1 bind [2]?
**A.** binds

B2: BS813 (bispecific antibody, human IgG1, kappa, L234A L235A)
heavy: not shown
light: EIVLTQSPATLSLSPGERATLSCSASSSVSYMHWYQQKPGQAPRPWIYDTSNLASGFPARFSGSGSGTDFTLTISSLEPEDFAVYYCHQRSSYPWTFGGGTKVEIKRTVAAPSVFIFPPSDEQLKSGTASVVCLLNNFYPREAKVQWKVDNALQSGNSQESVTEQDSKDSTYSLSSTLTLSKADYEKHKVYACEVTHQGLSSPVTKSFNRGEC
**Q.** What does the source list for B2?
**A.** average IL-2 concentration in human PBMC-derived T cells (PHA-L-treated, OKT3-coated plate), 1 µg/ml antibody [3]: 2200; average IL-2 concentration, SEB-treated human PBMC, 1 µg/ml antibody [3]: 17.7 ng/mL; average IL-2 concentration in human PBMC-derived T cells (PHA-L-treated, OKT3-coated plate), 1 µg/ml antibody [4]: 2200; average IL-2 concentration, SEB-treated human PBMC, 1 µg/ml antibody [4]: 17.7 ng/mL; average relative luciferase unit (RLU) in JD/OX40 cells, 1 µg/ml antibody, with NS0/PD-L1 cells [4]: 23700 RLU; average relative luciferase unit (RLU) in JD/OX40 cells, 1 µg/ml antibody, with NS0/PD-L1 cells [5]: 23700 RLU

B3: BS809 (bispecific antibody, human IgG1, kappa, L234A L235A)
heavy: not shown
light: EIVLTQSPATLSLSPGERATLSCSASSSVSYMHWYQQKPGQAPRPWIYDTSNLASGFPARFSGSGSGTDFTLTISSLEPEDFAVYYCHQRSSYPWTFGGGTKVEIKRTVAAPSVFIFPPSDEQLKSGTASVVCLLNNFYPREAKVQWKVDNALQSGNSQESVTEQDSKDSTYSLSSTLTLSKADYEKHKVYACEVTHQGLSSPVTKSFNRGEC
**Q.** For B3, which “average IL-2 concentration in PBMC-derived T cells of donor 4143, 1 µg/ml antibody” value [3] is on record?
**A.** 4200 pg/mL

**Q.** What about the “average IL-2 concentration in PBMC-derived T cells of donor 4143, 1 µg/ml antibody” value [6] of the same binder?
**A.** 4200 pg/mL

**Q.** What about the “average relative luciferase unit (RLU) in the culture supernatants of JD/GITR cells, 1 µg/ml antibody, with NS0/PD-L1 cells” value [6] of the same binder?
**A.** 1.04e+06 RLU

**Q.** And the “average relative luciferase unit (RLU) in the culture supernatants of JD/GITR cells, 1 µg/ml antibody, with NS0/PD-L1 cells” value [5]?
**A.** 1.04e+06 RLU

B4: HuPRO1-IgG1.AA (antibody, V domains shown)
VH: QVQLVQSGAEVKKPGSSVKVSCKASGFTFSSSYISWVRQAPGQGLEWIAWIYAGTGGTSYNQKFTGRATITVDESTSTAYMELSSLRSEDTAVYYCARHEGVYWYFDVWGQGTTVTVSS
VL: EIVLTQSPATLSLSPGERATLSCSASSSVSYMHWYQQKPGQAPRPWIYDTSNLASGFPARFSGSGSGTDFTLTISSLEPEDFAVYYCHQRSSYPWTFGGGTKVEIKR
notes: Humanized IgG1/kappa with L234A/L235A; Heavy chain built from VH and the constant exons of pHuM195-IgG1; also called humanized PRO1; anti-PD-L1
**Q.** With B4 as the binder, how does the “average IL-2 concentration in PBMC-derived T cells of donor 4143, 1 µg/ml antibody” value [3] read?
**A.** 1450 pg/mL

**Q.** What about the IC50 [7] of the same binder?
**A.** 0.106 µg/mL

B5: HuPRO5-IgG1.AA (antibody, V domains shown)
VH: QVQLQESGPGLVKPSQTLSLTCTVSGDSISSGYWNWIRQPPGKGLEYMGYISYTGSTYSNPSLKSRVTISRDTSKNQFSLKLSSVTAADTAVYYCARSQNWERAWFAYWGQGTLVTVSS
VL: DIQMTQSPSSLSASVGDRVTITCSASSSVSYMHWYQQKPGKAPKLWIYDTSKLASGVPSRFSGSGSGTDFTLTISSLQPEDFATYYCFQGSGYPFTFGGGTKVEIKR
notes: also called humanized PRO5; Anti-PD-L1 #5
**Q.** Which IC50 [7] does the source give for B5 here?
**A.** 0.087 µg/mL

B6: HuM195-IgG1 (antibody, V domains shown)
VH: QVQLVQSGAEVKKPGSSVKVSCKASGYTFTDYNMHWVRQAPGQGLEWIGYIYPYNGGTGYNQKFKSKATITADESTNTAYMELSSLRSEDTAVYYCARGRPAMDYWGQGTLVTVSS
VL: DIQMTQSPSSLSASVGDRVTITCRASESVDNYGISFMNWFQQKPGGAPKLLIYAASNQGSGVPSRFSGSGSGTDFTLTISSLQPDDFATYYCQQSKEVPWTFGQGTKVEIKR
notes: Humanized IgG1/kappa, wild-type CH2; also called humanized anti-CD33 IgG1/kappa antibody; anti-CD33
**Q.** Does B6 bind [8]?
**A.** no binding

B7: HuACS2-IgG1.AA (antibody, V domains shown)
VH: QVQLVQSGAEVKKPGSSVKVSCKASGYTFTSYWLHWVRQAPGQGLEWIGRIDPNSGDTKYNEKFKSRATITVDKSTSTAYMELSSLRSEDTAVYYCARYYYGRSYFDYWGQGTTVTVSS
VL: IVLTQSPATLSLSPGERATLSCSASSSVSYMHWYQQKPGQAPRRWIYDTSKLASGVPARFSGSGSGTDYTLTISSLEPEDFAVYYCQQWSSNPLTFGGGTKVEIKR
**Q.** B7 was tested. Which “percentage of CD95-positive population among Ramos cells, 0.5 µg/ml antibody, in the presence of HL-60 cells” value (shortened to “percentage”) [9] did it give?
**A.** 0.7%

B8: BS841 (bispecific antibody, human IgG1, kappa, L234A L235A)
heavy: not shown
light: DIQLTQSPSFLSASVGDRVTITCSASSSVNYMHWFQQKPGKAPKLWIYSTSNLASGVPSRFSGSGSGTEFTLTISSLQPEDFATYYCQQRSSYPLTFGGGTKVEIKRTVAAPSVFIFPPSDEQLKSGTASVVCLLNNFYPREAKVQWKVDNALQSGNSQESVTEQDSKDSTYSLSSTLTLSKADYEKHKVYACEVTHQGLSSPVTKSFNRGEC
**Q.** With B8 as the binder, how does the “average IL-2 concentration in human PBMC-derived T cells (PHA-L-treated, OKT3-coated plate), 1 µg/ml antibody” value [3] read?
**A.** 1700

**Q.** What about the “average IL-2 concentration, SEB-treated human PBMC, 1 µg/ml antibody” value [3] of the same binder?
**A.** 16.5 ng/mL

**Q.** What about the “average IL-2 concentration in human PBMC-derived T cells (PHA-L-treated, OKT3-coated plate), 1 µg/ml antibody” value [4] of the same binder?
**A.** 1700

**Q.** What about the “average IL-2 concentration, SEB-treated human PBMC, 1 µg/ml antibody” value [4] of the same binder?
**A.** 16.5 ng/mL

B9: HuOHX14DS-IgG1.AA (antibody, V domains shown)
VH: QVQLVQSGAEVKKPGSSVKVSCKASGYTFTSYIMHWVRQAPGQGLEWIGYINPYNSGTKYNEKFKGRVTITSDKSTSTAYMELSSLRSEDTAVYYCAHYYGSTFTMDYWGQGTTVTVSS
VL: DIQMTQSPSSLSASVGDRVTITCRASQDIRTYLNWYQQKPGKVPKLLIYYTSRLHSGVPSRFSGSGSGTDYTLTISSLQPEDVATYYCQQGNTLPWTFGGGTKVEIKR
**Q.** Which results are given for B9?
**A.** average relative luciferase unit (RLU) in JD/OX40 cells, 1 µg/ml antibody, with NS0/CD33 cells [4]: 8700 RLU; average relative luciferase unit (RLU) in JD/OX40 cells, 1 µg/ml antibody, with NS0/PD-L1 cells [4]: 5920 RLU

B10: HuPRO2-IgG1.AA (antibody, V domains shown)
VH: VQLVQSGAEVKKPGSSVKVSCKASGYTFTSYGINWVRQAPGQGLEWIGYIYPGSGGPVYNQKFKGRVTLTADKSTSTAYMELSSLRSEDTAVYYCARENYRYWYFDVWGQGTTVTVSS
VL: DIQLTQSPSFLSASVGDRVTITCSASSSVNYMHWFQQKPGKAPKLWIYSTSNLASGVPSRFSGSGSGTEFTLTISSLQPEDFATYYCQQRSSYPLTFGGGTKVEIKR
notes: Humanized IgG1/kappa with L234A/L235A; also called humanized PRO2; Anti-PD-L1 #2
**Q.** How did the IC50 [7] turn out when B10 was run?
**A.** 0.055 µg/mL

B11: BS828 (bispecific antibody, human IgG1, kappa, L234A L235A)
heavy: not shown
light: DIQMTQSPSSLSASVGDRVTITCRASESVDNYGISFMNWFQQKPGGAPKLLIYAASNQGSGVPSRFSGSGSGTDFTLTISSLQPDDFATYYCQQSKEVPWTFGQGTKVEIKRTVAAPSVFIFPPSDEQLKSGTASVVCLLNNFYPREAKVQWKVDNALQSGNSQESVTEQDSKDSTYSLSSTLTLSKADYEKHKVYACEVTHQGLSSPVTKSFNRGEC
**Q.** How did the “percentage” value [9] turn out when B11 was run?
**A.** 58.4%

**Q.** And the “percentage” value [10]?
**A.** 58.4%

B12: BS824 (bispecific antibody, human IgG1, kappa, L234A L235A)
heavy: not shown
light: DIQMTQSPSSLSASVGDRVTITCRASESVDNYGISFMNWFQQKPGGAPKLLIYAASNQGSGVPSRFSGSGSGTDFTLTISSLQPDDFATYYCQQSKEVPWTFGQGTKVEIKRTVAAPSVFIFPPSDEQLKSGTASVVCLLNNFYPREAKVQWKVDNALQSGNSQESVTEQDSKDSTYSLSSTLTLSKADYEKHKVYACEVTHQGLSSPVTKSFNRGEC
**Q.** What does the source list for B12?
**A.** average relative luciferase unit (RLU) in JD/OX40 cells, 1 µg/ml antibody, with NS0/CD33 cells [11]: 21700 RLU; average relative luciferase unit (RLU) in JD/OX40 cells, 1 µg/ml antibody, with NS0/CD33 cells [4]: 21700 RLU
